The experiment deals with T1, β3 integrin (Mus musculus, UniProt O54890+P43406).
T1 construct: we isolated primary CD8+ T-cells from melanoma bearing mice; endogenous in cells; host or cells: primary CD8+ T-cells isolated from melanoma bearing mice
T1 sequence (O54890 26-787): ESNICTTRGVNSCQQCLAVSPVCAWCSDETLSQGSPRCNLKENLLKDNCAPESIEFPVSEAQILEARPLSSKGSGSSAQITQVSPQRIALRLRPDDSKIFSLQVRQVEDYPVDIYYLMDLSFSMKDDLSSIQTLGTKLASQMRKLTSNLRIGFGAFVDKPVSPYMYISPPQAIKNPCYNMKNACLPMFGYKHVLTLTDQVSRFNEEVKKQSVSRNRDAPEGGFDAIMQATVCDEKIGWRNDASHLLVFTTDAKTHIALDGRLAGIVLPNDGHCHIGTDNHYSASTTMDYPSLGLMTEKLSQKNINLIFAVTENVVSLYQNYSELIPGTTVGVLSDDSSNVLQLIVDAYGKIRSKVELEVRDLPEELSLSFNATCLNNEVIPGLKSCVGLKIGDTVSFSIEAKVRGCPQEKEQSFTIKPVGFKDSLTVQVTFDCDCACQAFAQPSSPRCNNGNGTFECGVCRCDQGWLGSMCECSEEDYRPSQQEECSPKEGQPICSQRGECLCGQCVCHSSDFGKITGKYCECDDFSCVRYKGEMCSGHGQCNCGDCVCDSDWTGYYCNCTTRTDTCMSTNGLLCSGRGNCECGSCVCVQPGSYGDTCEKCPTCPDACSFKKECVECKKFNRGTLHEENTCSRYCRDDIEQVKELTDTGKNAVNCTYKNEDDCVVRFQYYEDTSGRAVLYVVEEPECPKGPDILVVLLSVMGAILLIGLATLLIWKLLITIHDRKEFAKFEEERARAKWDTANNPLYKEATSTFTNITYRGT
T1 sequence (P43406 31-885 limits assumed): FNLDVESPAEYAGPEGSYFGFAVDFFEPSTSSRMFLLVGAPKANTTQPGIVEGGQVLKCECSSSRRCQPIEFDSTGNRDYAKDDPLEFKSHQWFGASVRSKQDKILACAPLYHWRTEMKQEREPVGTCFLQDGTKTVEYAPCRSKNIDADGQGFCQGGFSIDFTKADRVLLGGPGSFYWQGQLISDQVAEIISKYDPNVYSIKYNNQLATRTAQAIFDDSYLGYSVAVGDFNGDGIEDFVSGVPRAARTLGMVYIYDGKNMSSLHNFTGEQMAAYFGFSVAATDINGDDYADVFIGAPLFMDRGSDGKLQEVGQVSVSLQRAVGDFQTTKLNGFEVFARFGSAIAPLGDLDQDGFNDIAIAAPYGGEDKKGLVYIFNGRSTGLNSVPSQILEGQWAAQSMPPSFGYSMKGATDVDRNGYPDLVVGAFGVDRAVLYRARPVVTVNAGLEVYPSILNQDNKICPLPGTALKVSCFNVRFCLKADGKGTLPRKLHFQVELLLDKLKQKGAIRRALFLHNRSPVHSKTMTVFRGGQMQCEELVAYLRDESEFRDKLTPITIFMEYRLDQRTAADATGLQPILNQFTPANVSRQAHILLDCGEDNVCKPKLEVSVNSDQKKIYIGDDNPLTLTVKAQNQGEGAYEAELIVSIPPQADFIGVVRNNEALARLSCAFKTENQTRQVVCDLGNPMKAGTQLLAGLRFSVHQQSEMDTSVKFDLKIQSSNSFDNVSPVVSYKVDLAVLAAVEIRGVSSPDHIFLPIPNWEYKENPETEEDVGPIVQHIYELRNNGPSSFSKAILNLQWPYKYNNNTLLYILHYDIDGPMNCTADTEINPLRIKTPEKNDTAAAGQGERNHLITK
T1 sequence (P43406 887-1044 partner limits assumed): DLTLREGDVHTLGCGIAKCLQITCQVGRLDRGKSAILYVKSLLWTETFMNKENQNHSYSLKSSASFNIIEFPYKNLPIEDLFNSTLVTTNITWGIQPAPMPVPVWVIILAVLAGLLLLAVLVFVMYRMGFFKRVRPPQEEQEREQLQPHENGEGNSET
The experiment can be described thus: Western blot of β3 integrin phosphorylation in primary CD8+ T-cells after peptide stimulation. The note with it: primary CD8+ T-cells from melanoma bearing mice, compared to control peptide CP. In kind it is cell-based, murine. The method, then: FIGS. 2A-2F. Detection of RGDKGE (SEQ ID NO: 1)-containing collagen peptide in malignant tumor cells and expression of key signaling molecules in T-cells. Briefly, whole cell lysates and serum free concentrated conditioned medium was prepared from tumor cells lines. FIG. 2A. Western blot analysis of whole cell lysates from human C8161 and murine B16F10 melanoma cells for the expression of the low molecular weight 16 kDa RGDKGE (SEQ ID NO: 1)-containing collagen peptide (XL313) or actin as a loading control. FIG. 2B. […]
Whole cell and CAM tissue lysates were collected in RIPA buffer (10 mM Tris-HCl, pH 8.0; 1 mM EDTA; 0.5 mM EGTA; 1% Triton X-100; 0.1% Sodium Deoxycholate; 0.1% SDS; 140 mM NaCl) supplemented with 1× protease inhibitor and 1× phosphatase inhibitor and were run on polyacrylamide gels using denaturing conditions. […] Western blot bands were quantified using Image J software based on pixel intensity.
We previously made the surprising observation that a small bioactive collagen peptide containing the core amino acid sequence RGDKGE (SEQ ID NO: 1) could be generated inside a subset of M2-like activated macrophages as well as a variety of other malignant tumor cells, and then actively secreted outside the cells (11-13). Importantly, minimal levels of this soluble collagen peptide was detected in normal cells (13). […]

We go through one sequence from patent US20240327506A1, “METHODS AND COMPOSITION FOR THE SELECTIVE ENHANCEMENT OF ADOPTIVE CELL THERAPY” (MaineHealth, priority 2023, published 2024).

“QGPRGDKGE (CQGPRGDKGEC; Synthetic: Synthetic collagen RGD containing peptide P-2) [Peptide P2, synthetic version of the soluble RGDKGE-containing collagen peptide]”: the β3 integrin phosphorylation entry is “enhanced β3 integrin phosphorylation”.
